Assay results from paper PMC5404824, “Engineering Nucleotide Specificity of Succinyl-CoA Synthetase in Blastocystis: The Emerging Role of Gatekeeper Residues” (Biochemistry, 2016).

Substrate: Nc1ncnc2c1ncn2[C@@H]1O[C@H](COP(=O)(O)OP(=O)(O)OP(=O)(O)O)[C@@H](O)[C@H]1O
Assay: purified protein
Details: 129 μM CoA, 10 mM succinate, 50 mM KCl, 10 mM MgCl2, 50 mM Tris-HCl pH 7.4, 30 nM enzyme

B1: Blastocystis SCS (succinyl-CoA synthetase, SCSα + SCSβ) (Blastocystis sp. ATCC 50177/Nand II) (protein)
chain: LNIHEWQSKQLIQKYGGRAQSGEVAFSPERSRDIAKKLWNQFPGCKFVVKAQVLAGGRGKGHWEHGMQGGVKLAKTPEEVYEIANEMIGHKLITKQTGAKGINCNKVMVCGAVKILKEFYLSILLDRAMGCPVIIATSQGGMGIEEVAQKCPECLFKVPISVKNGPTNEQLVKLAKDLGLEGDLVQDCVDNVKALYQVFDKCDSTMVEINPLGVIETPTDEKVICCLDAKIAFDKDAAFRQKEIFALRDKSREDPRDVRASLADLNYVGLDGDIGCMVNGAGLAMATMDTINYFGGSAANFLDVGGNAKKEQITEALRILNSDKHVKSILINIFGGIMRCDVVAQGIMDAVREMKLDLPLVVRLEGTNVAKGKEILKSSGLNIIPANDLGDAAKKAVASLKH
With B1 the Km was 145 ± 47 µM, the kcat was 0.0139 s⁻¹ and the kcat/Km was 96 M⁻¹ s⁻¹.
